Measurements taken from publication PMC6156662 (Proceedings of the National Academy of Sciences of the …, 2018).
Values belong to the molecule of their own block, whether it stands above or below them.

Columns and labels:
[1] = system: cells stably expressing HA-CHMP4C constructs, with siRNA; assay: Abscission checkpoint activation by drug; type: cell-based
HCT116^δCHMP4C cells [2] = assay: Cell growth assay with aphidicolin; type: cell-based; conditions: 30 nM aphidicolin
[3] = system: HCT116^WT and HCT116^δCHMP4C cells; assay: Cell-cycle arrest by flow cytometry, mitomycin C; type: cell-based; conditions: 200 ng/mL mitomycin C, overnight
[4] = system: HCT116^WT and HCT116^δCHMP4C cells; assay: Mitotic arrest by flow cytometry and Western blotting, nocodazole; type: cell-based; conditions: 50 ng/mL nocodazole
HCT116^WT cells [5] = conditions: 0.1 μM reversine, 7 d
HCT116^WT cells [6] = conditions: 0.1 μM reversine, 48 h; <37 or >48 chromosomes; DMSO 1%
HCT116 cells [7] = conditions: 0.1 μM reversine, cells with defective abscission checkpoint
HCT116^δCHMP4C cells [8] = assay: Cell growth assay with reversine, HCT116^δCHMP4C; type: cell-based; conditions: 0.1 μM reversine
HCT116 cells [9] = assay: Anaphase chromosome missegregation; type: cell-based; conditions: low-dose (0.1 μM) reversine, or p53 depletion by shRNA
HCT116^δCHMP4C cells [10] = assay: Karyotyping, extreme aneuploidy in HCT116^δCHMP4C; type: cell-based; conditions: 0.1 μM reversine; for protection against reversine-induced aneuploidy: reexpression in HCT116^δCHMP4C
full-length ALIX = assay: Yeast two-hybrid β-galactosidase assay with ALIX; conditions: full-length CHMP4C, mean ± SD, n = 3
[11] = system: HeLa cells stably expressing YFP-Lap2β; assay: Resolution time of YFP-Lap2β chromatin bridges, live-cell imaging; conditions: siCHMP4C, endogenous CHMP4C 685 min
[12] = system: HeLa mCherry-tubulin cells; assay: Midbody abscission time, live-cell imaging; conditions: siCHMP4C background
HeLa cells = assay: Abscission checkpoint activity; conditions: siCHMP4C; Nup153/Nup50 partial depletion; midbody-arrested cells
midbody of HeLa cells = assay: HA-CHMP4C midbody recruitment; conditions: with or without nucleoporin depletion
HCT116^δCHMP4C cells [13] = assay: DNA damage: 53BP1 foci; type: cell-based; conditions: reexpression in HCT116^δCHMP4C
HCT116 cells [14] = assay: Cell growth assay after p53 depletion; type: cell-based; conditions: p53 shRNA
[15] = construct expressed in HCT116^δCHMP4C

Molecule: C[C@@]1(CO)[C@H](O)CC[C@@]2(C)[C@H]1CC[C@H]1C[C@@H]3C[C@@]12CC[C@]3(O)CO [aphidicolin, reference compound]
- activation of the abscission checkpoint ([1]; 30 nM aphidicolin, 24 h (replication stress)): triggers the abscission checkpoint in a CHMP4C-dependent manner
- effect on proliferation (HCT116^δCHMP4C cells [2]; continuous): reduced the proliferation of HCT116^δCHMP4C cells nearly twofold compared with HCT116^WT cells

Molecule: CO[C@@]12[C@H](COC(N)=O)C3=C(C(=O)C(C)=C(N)C3=O)N1C[C@@H]1N[C@@H]12 [mitomycin C]
- G2/M cell-cycle arrest [3]: normal in HCT116^δCHMP4C cells

Molecule: COC(=O)Nc1nc2cc(C(=O)c3cccs3)ccc2[nH]1 [nocodazole]
- mitotic / G2/M arrest [4]: did not observe a failure of HCT116^δCHMP4C cells to arrest

Molecule: c1nc2nc(Nc3ccc(N4CCOCC4)cc3)nc(NC3CCCCC3)c2[nH]1 [reversine]
- reduction of cell growth (HCT116^WT cells [5]): reduced HCT116^WT cell growth only modestly
- activation of the abscission checkpoint ([1]; 0.1 μM reversine, 24 h): activated the abscission checkpoint in a CHMP4C-dependent fashion
- cells with extreme aneuploidy (HCT116^WT cells [6]): 7%
- micronuclei (HCT116 cells [7]): did display a higher proportion of micronuclei
- multinucleation (HCT116 cells [7]): did not induce a multinucleation phenotype
- reduction of cell growth (HCT116^δCHMP4C cells [8]; over 7-d period): at least 70%
- anaphase chromosome missegregation (HCT116 cells [9]): doubled the frequency of anaphase chromosome missegregation
- cells with extreme aneuploidy (HCT116^δCHMP4C cells [10]; 48 h, <37 or >48 chromosomes, DMSO 4%): 23%

B1: A232T full-length CHMP4C (protein, UniProt Q96CF2 1-233, looked up, variant A232T)
chain: MSKLGKFFKGGGSSKSRAAPSPQEALVRLRETEEMLGKKQEYLENRIQREIALAKKHGTQNKRAALQALKRKKRFEKQLTQIDGTLSTIEFQREALENSHTNTEVLRNMGFAAKAMKSVHENMDLNKIDDLMQEITEQQDIAQEISEAFSQRVGFGDDFDEDELMAELEELEQEELNKKMTNIRLPNVPSSSLPAQPNRKPGMSSTARRSRAASSQRAEEEDDDIKQLAAWTT
modifications: full-length
- interaction with ALIX (full-length ALIX): significantly reduced the interaction between full-length CHMP4C and ALIX

B2: HA-CHMP4C^T232: HA-CHMP4C full length siRNA-resistant T232 rs35094336 mutant (protein, UniProt Q96CF2 1-233, looked up, variant A232T)
chain: MSKLGKFFKGGGSSKSRAAPSPQEALVRLRETEEMLGKKQEYLENRIQREIALAKKHGTQNKRAALQALKRKKRFEKQLTQIDGTLSTIEFQREALENSHTNTEVLRNMGFAAKAMKSVHENMDLNKIDDLMQEITEQQDIAQEISEAFSQRVGFGDDFDEDELMAELEELEQEELNKKMTNIRLPNVPSSSLPAQPNRKPGMSSTARRSRAASSQRAEEEDDDIKQLAAWTT
modifications: full-length HA tag
- chromatin bridge resolution time, median [11]: 200 min
- abscission rate under normal growth conditions [12]: proceeded through abscission more rapidly under normal growth conditions
- abscission checkpoint activity (HeLa cells): does not support the abscission checkpoint
- recruitment to midbody (midbody of HeLa cells): recruited to the midbody at normal levels
- protection against reversine-induced aneuploidy (HCT116^δCHMP4C cells [10]): but not HA-CHMP4C^T232, protected against reversine-induced increases in aneuploidy

B3: HA-CHMP4C^A232: HA-CHMP4C full length siRNA-resistant wild type, reference protein (protein, UniProt Q96CF2 1-233, looked up)
chain: MSKLGKFFKGGGSSKSRAAPSPQEALVRLRETEEMLGKKQEYLENRIQREIALAKKHGTQNKRAALQALKRKKRFEKQLTQIDGTLSTIEFQREALENSHTNTEVLRNMGFAAKAMKSVHENMDLNKIDDLMQEITEQQDIAQEISEAFSQRVGFGDDFDEDELMAELEELEQEELNKKMTNIRLPNVPSSSLPAQPNRKPGMSSTARRSRAASSQRAEEEDDDIKQLAAWAT
modifications: full-length HA tag
- DNA damage, 53BP1 foci (HCT116^δCHMP4C cells [13]): reduced to control levels upon reexpression of HA-CHMP4C^A232
- chromatin bridge resolution time, median [11]: 800 min
- growth after p53 depletion (HCT116 cells [14]): reversed upon reexpression of CHMP4C^A232
- abscission checkpoint activity (HeLa cells): checkpoint activity was rescued in cells that expressed HA-CHMP4C^A232
- recruitment to midbody (midbody of HeLa cells): recruited to the midbody at normal levels
- rescue of growth defect under aphidicolin (HCT116^δCHMP4C cells [2]; [15]): rescued by expression of HA-CHMP4C^A232
- restoration of growth in presence of reversine (HCT116^δCHMP4C cells [8]; [15]): restored by the expression of HA-CHMP4C^A232
- protection against reversine-induced aneuploidy (HCT116^δCHMP4C cells [10]): protected against reversine-induced increases in aneuploidy

- interaction with ALIX (full-length ALIX): complete loss of ALIX binding
B4: L228A with W231A full-length CHMP4C (protein, UniProt Q96CF2 1-233, looked up, variant L228A W231A)
chain: MSKLGKFFKGGGSSKSRAAPSPQEALVRLRETEEMLGKKQEYLENRIQREIALAKKHGTQNKRAALQALKRKKRFEKQLTQIDGTLSTIEFQREALENSHTNTEVLRNMGFAAKAMKSVHENMDLNKIDDLMQEITEQQDIAQEISEAFSQRVGFGDDFDEDELMAELEELEQEELNKKMTNIRLPNVPSSSLPAQPNRKPGMSSTARRSRAASSQRAEEEDDDIKQAAAAAT
modifications: full-length
